Data reported in the supplement of paper PMC6757056.
± gives the standard deviation of the averaged measurements.

B1: library; a variant is named by its letters at N, in order (parent)
chain: GCUGUCACCGAGAAACUGUGAAGUAUAUCUUAAACCUGGGCACUUAAAAGAUAUAUGGAGUUAGUAGUGCAACCUGCUCGGUCUGAUGAGUCCNNNNNNGGACGAAACAGC

What was measured:
cyclic di-GMP [1] = variants of: B1; assay: normalized RNA/DNA level without ligand (relative to sTRSVctl = 100) (log10 (% of sTRSVctl)); HEK293T; ligand: cyclic di-GMP (c-di-GMP-II aptamer); higher = less ribozyme self-cleavage, higher mRNA level; conditions: reporter: mCherry (pCS4076), ligand present: no
Outline: (§1)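 For each 6-well well, 4 µg of library plasmid encoding mCherry-linked ribozyme switches, or eGFP-linked ones in some ligand experiments, was transfected into HEK293T. Any ligand was added 1 h before transfection, and RNA was extracted with EDTA 72 h after it, then reverse-transcribed, amplified, barcoded and sequenced. RNA level was obtained by dividing RNA reads by DNA reads, normalizing to a spiked-in non-cleaving sequence or to the top sequences, then scaling and log-transforming. The top set was 25 sequences, scaling was ×100 with log10, and ≥100 DNA reads were required.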

cyclic di-GMP [2] = variants of: B1; assay: normalized RNA/DNA level with ligand (relative to sTRSVctl = 100) (log10 (% of sTRSVctl)); HEK293T; ligand: cyclic di-GMP (c-di-GMP-II aptamer); ligand concentration (+) RNA-Seq: 1 mM; higher = less ribozyme self-cleavage, higher mRNA level; conditions: reporter: mCherry (pCS4076), ligand present: yes
Outline: as §1

| Variant | normalized RNA/DNA level without ligand (log10) (cyclic di-GMP [1]) | normalized RNA/DNA level with ligand (log10) (cyclic di-GMP [2]) |
| --- | --- | --- |
| CGCUAG | 1.747 ± 0.0046 | 1.87 ± 0.15 |
| CUUAAG | 1.69 ± 0.05 | 1.89 ± 0.079 |
| CUUUGC | 1.795 ± 0.017 | 1.88 ± 0.11 |
| GCCCAC | 1.656 ± 0.0072 | 1.82 ± 0.14 |
| GCCCAA | 1.616 ± 0.011 | 1.77 ± 0.17 |
| CAACUG | 1.75 ± 0.034 | 1.82 ± 0.13 |
| GAUCUG | 1.708 ± 0.016 | 1.84 ± 0.07 |
| UAAGCU | 1.7 ± 0.031 | 1.83 ± 0.097 |
| GACUCU | 1.704 ± 0.005 | 1.84 ± 0.12 |
| GAGUCU | 1.8 ± 0.07 | 1.85 ± 0.076 |
| GAAAGC | 1.59 ± 0.029 | 1.72 ± 0.068 |
| GCAAGU | 1.39 ± 0.16 | 1.64 ± 0.082 |
| GCAAGG | 1.41 ± 0.14 | 1.57 ± 0.11 |
| UCUACG | 1.74 ± 0.011 | 1.89 ± 0.092 |
| ACGCCU | 1.64 ± 0.099 | 1.8 ± 0.036 |
| AGUGGC | 1.6 ± 0.079 | 1.79 ± 0.11 |
| GACGAG | 1.56 ± 0.091 | 1.71 ± 0.071 |
| GAACUU | 1.68 ± 0.051 | 1.83 ± 0.096 |
| UUAAUA | 1.64 ± 0.044 | 1.8 ± 0.16 |
| UCUCAG | 1.75 ± 0.073 | 1.89 ± 0.098 |
| GCGUCC | 1.63 ± 0.055 | 1.81 ± 0.047 |
| AGAUCG | 1.72 ± 0.051 | 1.88 ± 0.061 |
| AUAGAG | 1.46 ± 0.13 | 1.73 ± 0.082 |
| GUCCCA | 1.772 ± 0.0084 | 1.87 ± 0.075 |

| Variant | normalized RNA/DNA level without ligand (log10) (cyclic di-GMP [1]) | normalized RNA/DNA level with ligand (log10) (cyclic di-GMP [2]) |
| --- | --- | --- |
| GAACGC | 1.64 ± 0.07 | 1.78 ± 0.058 |
| UGUUGC | 1.75 ± 0.026 | 1.89 ± 0.14 |
| UCUUUU | 1.744 ± 0.012 | 1.84 ± 0.073 |
| UUAAAA | 1.645 ± 0.0029 | 1.8 ± 0.066 |
| CGUCGC | 1.76 ± 0.024 | 1.87 ± 0.16 |
| UCGGGU | 1.64 ± 0.09 | 1.79 ± 0.13 |
| AAAAAC | 1.61 ± 0.031 | 1.74 ± 0.13 |
| GUGGGG | 1.65 ± 0.021 | 1.8 ± 0.14 |
| GGCGUA | 1.6 ± 0.017 | 1.74 ± 0.13 |
| ACACUC | 1.637 ± 0.0033 | 1.77 ± 0.11 |
| CUGUCG | 1.73 ± 0.047 | 1.84 ± 0.14 |
| GUCCUA | 1.709 ± 0.0036 | 1.88 ± 0.083 |
| CAACGC | 1.757 ± 0.014 | 1.84 ± 0.11 |
| UCAUGC | 1.71 ± 0.081 | 1.89 ± 0.045 |
| AGUUAC | 1.7078 ± 0.0015 | 1.85 ± 0.15 |
| GCGAUU | 1.47 ± 0.024 | 1.69 ± 0.19 |
| CCGUCG | 1.68 ± 0.0046 | 1.82 ± 0.13 |
| UCCUAA | 1.63 ± 0.077 | 1.79 ± 0.067 |
| CUUACG | 1.82 ± 0.085 | 1.87 ± 0.19 |
| CUUACC | 1.77 ± 0.049 | 1.86 ± 0.15 |
| UGGUGU | 1.6 ± 0.11 | 1.81 ± 0.063 |
| UCCCUC | 1.78 ± 0.038 | 1.89 ± 0.14 |
| CCUGCA | 1.67 ± 0.056 | 1.84 ± 0.058 |
| AUCGUU | 1.6 ± 0.035 | 1.78 ± 0.048 |

| Variant | normalized RNA/DNA level without ligand (log10) (cyclic di-GMP [1]) | normalized RNA/DNA level with ligand (log10) (cyclic di-GMP [2]) |
| --- | --- | --- |
| CACAGC | 1.729 ± 0.0089 | 1.84 ± 0.085 |
| CGAGAC | 1.643 ± 0.0051 | 1.77 ± 0.16 |
| AACUUG | 1.66 ± 0.051 | 1.85 ± 0.11 |
| AGCUAU | 1.7 ± 0.05 | 1.84 ± 0.12 |
| ACGUCA | 1.61 ± 0.033 | 1.76 ± 0.13 |
| AUGCUA | 1.57 ± 0.034 | 1.77 ± 0.06 |
| UAGGUG | 1.58 ± 0.068 | 1.77 ± 0.093 |
| UGCCCC | 1.857 ± 0.013 | 1.93 ± 0.092 |
| AGAGUC | 1.6 ± 0.02 | 1.76 ± 0.097 |
| AGACCC | 1.79 ± 0.096 | 1.87 ± 0.18 |
| CGUAUG | 1.73 ± 0.019 | 1.86 ± 0.13 |
| ACCAAU | 1.48 ± 0.049 | 1.7 ± 0.11 |
| AGAAUA | 1.43 ± 0.091 | 1.63 ± 0.098 |
| AAUAAC | 1.634 ± 0.013 | 1.8 ± 0.092 |
| UCAUUC | 1.69 ± 0.051 | 1.85 ± 0.084 |
| AACAGC | 1.63 ± 0.078 | 1.78 ± 0.14 |
| UUCUAA | 1.66 ± 0.025 | 1.8 ± 0.11 |
| AUAUGU | 1.623 ± 0.0061 | 1.8 ± 0.15 |
| UCCACU | 1.695 ± 0.011 | 1.85 ± 0.12 |
| UGUAGG | 1.72 ± 0.035 | 1.85 ± 0.072 |
| CAUCGU | 1.74 ± 0.095 | 1.83 ± 0.098 |
| UACAUG | 1.711 ± 0.013 | 1.85 ± 0.14 |
| UUAUCG | 1.783 ± 0.014 | 1.86 ± 0.14 |
| AGUGUU | 1.617 ± 0.0053 | 1.79 ± 0.12 |

| Variant | normalized RNA/DNA level without ligand (log10) (cyclic di-GMP [1]) | normalized RNA/DNA level with ligand (log10) (cyclic di-GMP [2]) |
| --- | --- | --- |
| UAUAUU | 1.68 ± 0.043 | 1.86 ± 0.12 |
| AAACCC | 1.718 ± 0.0046 | 1.86 ± 0.09 |
| UGCAGA | 1.63 ± 0.031 | 1.8 ± 0.096 |
| GCCCCG | 1.799 ± 0.012 | 1.84 ± 0.086 |
| GAACCA | 1.677 ± 0.0078 | 1.8 ± 0.13 |
| UGCUGU | 1.748 ± 0.01 | 1.87 ± 0.1 |
| GGGGUA | 1.52 ± 0.018 | 1.62 ± 0.13 |
| GGUUAC | 1.76 ± 0.057 | 1.87 ± 0.033 |
| GAUAGC | 1.64 ± 0.019 | 1.76 ± 0.14 |
| CCUACG | 1.7 ± 0.021 | 1.82 ± 0.13 |
| UCUAAG | 1.64 ± 0.079 | 1.82 ± 0.072 |
| UUCAUG | 1.698 ± 0.013 | 1.83 ± 0.087 |
| GCUACU | 1.66 ± 0.019 | 1.81 ± 0.1 |
| ACUUGU | 1.668 ± 0.004 | 1.83 ± 0.1 |
| GAAGCC | 1.78 ± 0.034 | 1.89 ± 0.12 |
| CUUAUU | 1.54 ± 0.023 | 1.71 ± 0.065 |
| ACCUUC | 1.74 ± 0.042 | 1.83 ± 0.11 |
| ACCCGG | 1.7 ± 0.022 | 1.86 ± 0.099 |
| AAUAGC | 1.62 ± 0.047 | 1.8 ± 0.1 |
| GUCAUU | 1.66 ± 0.061 | 1.81 ± 0.12 |
| AUAACA | 1.62 ± 0.003 | 1.77 ± 0.14 |
| CACCCA | 1.59 ± 0.097 | 1.75 ± 0.077 |
| GCUCAC | 1.69 ± 0.034 | 1.83 ± 0.12 |
| GUGACU | 1.671 ± 0.002 | 1.8 ± 0.089 |

| Variant | normalized RNA/DNA level without ligand (log10) (cyclic di-GMP [1]) | normalized RNA/DNA level with ligand (log10) (cyclic di-GMP [2]) |
| --- | --- | --- |
| GUGCUC | 1.505 ± 0.0047 | 1.65 ± 0.17 |
| AGUGCU | 1.67 ± 0.043 | 1.82 ± 0.096 |
| UCAGGA | 1.45 ± 0.071 | 1.67 ± 0.099 |
| UUUAGG | 1.87 ± 0.057 | 1.96 ± 0.14 |
| UUCCUG | 1.776 ± 0.017 | 1.91 ± 0.11 |
| UGCGAC | 1.685 ± 0.016 | 1.82 ± 0.08 |
| AUGGGA | 1.4 ± 0.12 | 1.56 ± 0.074 |
| AAGCUC | 1.74 ± 0.012 | 1.89 ± 0.13 |
| AAUGAC | 1.63 ± 0.018 | 1.79 ± 0.081 |
| CCAUAU | 1.55 ± 0.041 | 1.73 ± 0.071 |
| CAGCGU | 1.701 ± 0.011 | 1.84 ± 0.088 |
| UUAGCG | 1.79 ± 0.032 | 1.86 ± 0.11 |
| CGCGAU | 1.58 ± 0.05 | 1.79 ± 0.14 |
| UGGAUG | 1.62 ± 0.027 | 1.82 ± 0.11 |
| UGGAUC | 1.699 ± 0.0067 | 1.88 ± 0.097 |
| UCUGUG | 1.73 ± 0.051 | 1.91 ± 0.092 |
| ACCUAG | 1.64 ± 0.053 | 1.78 ± 0.086 |
| UAUCCU | 1.755 ± 0.013 | 1.87 ± 0.13 |
| CAUAGG | 1.688 ± 0.011 | 1.85 ± 0.093 |
| ACGUGC | 1.59 ± 0.036 | 1.8 ± 0.065 |
